T1: Rrn7p subunit of recombinant core factor, N-terminal 6-his (S. cerevisiae, UniProt P40992 1-514)
T1 sequence (looked up): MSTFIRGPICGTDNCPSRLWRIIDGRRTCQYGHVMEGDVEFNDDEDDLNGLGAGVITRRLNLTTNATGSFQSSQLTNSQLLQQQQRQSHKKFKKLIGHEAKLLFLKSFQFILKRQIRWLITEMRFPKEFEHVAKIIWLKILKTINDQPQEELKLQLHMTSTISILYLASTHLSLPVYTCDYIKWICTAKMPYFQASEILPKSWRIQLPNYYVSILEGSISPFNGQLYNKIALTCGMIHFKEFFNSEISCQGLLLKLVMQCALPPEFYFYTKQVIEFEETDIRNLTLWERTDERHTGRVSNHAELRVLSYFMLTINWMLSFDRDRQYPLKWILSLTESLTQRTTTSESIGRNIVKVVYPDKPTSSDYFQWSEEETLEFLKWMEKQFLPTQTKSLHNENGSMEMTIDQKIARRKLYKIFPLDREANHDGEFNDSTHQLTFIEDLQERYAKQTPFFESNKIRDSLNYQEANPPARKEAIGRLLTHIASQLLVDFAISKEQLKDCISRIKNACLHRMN

B1: Rrn11p subunit of recombinant core factor, N-terminal 6-his (natural protein, S. cerevisiae, UniProt Q04712 1-507, looked up)
chain: MFEVPITLTNRKFAQRRKLKYQYINYISRRFDRISKKSTTTDSLPTPENSAAENNDEEEGQNSEAGTYRRSVLQQKKRRRERHWRSVVGEIYSTTESETDSQEEETEEGGEHDTGIDKEDSDEERKFWKKYEKPEKSFEIWRTVSSQNKQPINKQKMTYHNFKKIEKIPLRKMEIPLLHCTKENKLYFQSISRGLEPLKTSTSEVRNYRTRHIVTLTDLLHLNVSRHNWSLAYKIFATLIRIPGVQIKSLWGIGVEILDNLSNSSSGLDFLQWMCQIYSSKSRFVQNINYRSIVPPFQTGSRTHTAKFAITYLWSSLINCQKSMEPSSNIIDKPFDTENDLLQELIDKISEWVLTPPFMEDAEVWFIYASCHLLKADTLSRQFVNDNKNNDLIGLDRDIKINQVIKHIHYVRTFLKICLDKGGFAVPSRLIENQLKSFESRLYGEAQDIQERDVANVYDSIDNSSVENSFGDVYETNAEFLDTQLMDLSPEDNGLDEMHYSDEDSSE
B2: Rrn6p subunit of recombinant core factor (natural protein, S. cerevisiae, UniProt P32786 1-894, looked up)
chain: MSEGQIPSSDVLGSQLGVGVQGASLYCPQENYTTKKQEKPQWLRPVDDTLAEDALDLHIVVKSLLCDTAIRYISDDKVLQESDADDDLITSDIDEDTDNQGDTSIVVNPVIPVVPKDVHFFKKVDVGNDSMFGVNCDTPVSFQDYIPSDLLRNLDDTLQESTNSSRPMQDAFFWDPTVANRLDSQYIQTASDLRNYRDGTEIIAYASGKTGSVLNIAVLTRQNTLHLNRHNNVTSIELHSPIKSIKIPGASESIGRRSNLVGIITENSFQIFRIESVHSRSCDVMVSSSEPLYFVEIDDLQVVDFAFNPWDLQQFAIIDIKGNWSIGRIPKNFNNNNKRKLQLIDNLHGTIFDPEELSSWKRIEWFSHFQKILVFDRSKMIEIDFMNNWQTEVVQAKAWSNIRDYKRIDDKNGILLTSREIIIVGASESNDPVRRISWKHDLDPDDTTLRITVQKVKKPDHILLVAFVYSMRHKRIYMHVFSHRKANLFQSLGCSTVLEIPGGTPTGIETILTLDHIDDESRREEDADENFELVVDFLVKLRNSSEVYYYALSNTQNSEPNKQETPIIVDHPEWASLFNNADEREKESIGALVSQIKLKERERISRVQNLIEHENSHDEDKYLQDLGYRLSIATNELLESWQKTKDESILSGSLSHSKLKNLLENSDSFASIPEFSSLLDQFFQYYQDQDVTFIGFEKLLHLFLHEDVPGLDIFYNKLLQCWVLVSPQAELLTKEIVKDIIWSLARLEKPSLFEPIQNEISRSLSGPYQDIISSWDMDDINEEDESNEFNFDSQFSAPFNGRPPFNLNSQSQIPTIKSSQSSGLARRKRILKTQSQKATPLSQSTQNLSVLPDSMTPAFTLMQPPSSQISFVNDSQPRNSQKAKKKKKRIRGFG

Assay [1] addresses T1, Rrn7p subunit of recombinant core …. Kind of assay: quantification of Sypro Ruby stained SDS-PAGE bands of the purified complex.
The target of assay [2] is B1. The assay is described as above.

The stoichiometry N is the number of molecules, sites or subunits per partner or assembly.

Consider B1, for which, in assay [1], the “stoichiometry N” value was found to be 1.

For B2, the “stoichiometry N” value in assay [1] and in assay [2] was 1 each time.

Source of the values: paper PMC3246092 (Gene, 2011).
